Molecular target: (His)6-Raf-1 protein (UniProt P04049)
Test: totally cell-free pull-down, anti-Raf-1 immunoblot, densitometry

B1: FLAG-HMK-IL-2Rβ chain containing only the proline rich C-terminal (CT+) (receptor, not shown: small tags and cut ends)
chain: QPLSGEDDAYCTFPSRDDLLLFSPSLLGGPSPPSTAPGGSGAGEERMPPSLQERVPRDWDPQPLGPPTPGVPDLVDFQPPPELVLREAGEEVPDAGPREGVSFPWSRPPGQGEFRALNARLPLNTDAYLSLQELQGQDPTHLV
% binding to Raf-1 proteins (of the positive control): 0 to 10%

Reference: US20010016194A1, “COMPOUNDS THAT INHIBIT THE BINDING OF RAF-1 OR 14-3-3 PROTEINS TO THE BETA CHAIN OF IL-2 RECEPTOR, AND PHARMACEUTICAL COMPOSITIONS CONTAINING SAME” (priority 1999, published 2001)
